Source: patent US20220396632A1 (VERSEAU THERAPEUTICS, published 2022)
Non-standard residues stand in square brackets, D forms with d. No end group written: not given here. *: point of attachment. Biotin = O=C1N[C@H]2[C@H](CS[C@H]2CCCCC(=O)*)N1; sY = N[C@@H](Cc1ccc(OS(=O)(=O)O)cc1)C(=O)O

T1: Biotin sY51 PSGL-1(42-62) peptide (human, sulfotyrosine at Y51; C-terminal Lys-biotin)
T1 construct: also called Y51(SO3) PSGL-1(42-62)
T1 peptide: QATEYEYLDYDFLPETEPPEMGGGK

T2: Scrambled Y46,48,51(SO3) PSGL-1(42-62) biotin peptide (sulfotyrosine at peptide positions 5, 7 and 10; C-terminal Lys-biotin)
T2 construct: also called scrambled sulfated peptide: biotin
T2 peptide: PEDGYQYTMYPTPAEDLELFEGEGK

T3: Sulfotyrosine D6 biotin peptide (human)
T3 construct: also called D6 peptide
T3 peptide: ENSSFY[sY][sY]D[sY]LDEVAFGGK(Biotin)

T4: Human fibrinogen protein (ThermoFisher, RP-43142) (human, UniProt P02671 20-629; P02675 31-491; P02679 27-453, limits assumed, natural sulfotyrosines)
T4 construct: mature; Native dimer with 3 pairs of non-identical chains; also called gamma-fibrinogen; γ fibrinogen protein
T4 sequence (looked up) 1: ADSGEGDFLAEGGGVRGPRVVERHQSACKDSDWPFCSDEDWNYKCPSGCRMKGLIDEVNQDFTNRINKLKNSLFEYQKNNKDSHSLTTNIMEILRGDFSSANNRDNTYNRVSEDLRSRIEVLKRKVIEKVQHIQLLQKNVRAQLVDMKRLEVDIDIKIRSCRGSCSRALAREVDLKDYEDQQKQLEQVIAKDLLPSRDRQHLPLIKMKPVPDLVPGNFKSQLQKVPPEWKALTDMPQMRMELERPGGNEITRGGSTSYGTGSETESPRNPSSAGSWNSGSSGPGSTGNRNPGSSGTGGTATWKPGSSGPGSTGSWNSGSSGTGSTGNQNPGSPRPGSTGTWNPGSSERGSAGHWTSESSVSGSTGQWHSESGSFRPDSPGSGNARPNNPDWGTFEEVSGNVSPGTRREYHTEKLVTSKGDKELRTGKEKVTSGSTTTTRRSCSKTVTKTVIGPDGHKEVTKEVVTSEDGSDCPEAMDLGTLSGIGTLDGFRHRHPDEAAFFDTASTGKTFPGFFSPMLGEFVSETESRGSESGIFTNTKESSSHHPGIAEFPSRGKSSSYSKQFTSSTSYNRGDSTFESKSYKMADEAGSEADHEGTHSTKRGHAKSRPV
T4 sequence (looked up) 2: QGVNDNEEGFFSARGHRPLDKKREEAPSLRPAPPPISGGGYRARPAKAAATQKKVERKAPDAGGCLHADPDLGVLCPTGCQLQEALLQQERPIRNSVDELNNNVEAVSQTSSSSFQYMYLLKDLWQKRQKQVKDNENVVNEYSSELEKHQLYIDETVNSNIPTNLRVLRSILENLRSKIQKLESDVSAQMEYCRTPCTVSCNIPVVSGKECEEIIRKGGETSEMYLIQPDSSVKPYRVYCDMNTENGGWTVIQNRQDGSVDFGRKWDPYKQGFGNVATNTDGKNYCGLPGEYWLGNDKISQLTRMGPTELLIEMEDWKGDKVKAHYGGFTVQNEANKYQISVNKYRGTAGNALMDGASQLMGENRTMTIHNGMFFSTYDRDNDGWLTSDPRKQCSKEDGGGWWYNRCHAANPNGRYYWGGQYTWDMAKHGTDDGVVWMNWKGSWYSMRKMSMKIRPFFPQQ
T4 sequence (looked up) 3: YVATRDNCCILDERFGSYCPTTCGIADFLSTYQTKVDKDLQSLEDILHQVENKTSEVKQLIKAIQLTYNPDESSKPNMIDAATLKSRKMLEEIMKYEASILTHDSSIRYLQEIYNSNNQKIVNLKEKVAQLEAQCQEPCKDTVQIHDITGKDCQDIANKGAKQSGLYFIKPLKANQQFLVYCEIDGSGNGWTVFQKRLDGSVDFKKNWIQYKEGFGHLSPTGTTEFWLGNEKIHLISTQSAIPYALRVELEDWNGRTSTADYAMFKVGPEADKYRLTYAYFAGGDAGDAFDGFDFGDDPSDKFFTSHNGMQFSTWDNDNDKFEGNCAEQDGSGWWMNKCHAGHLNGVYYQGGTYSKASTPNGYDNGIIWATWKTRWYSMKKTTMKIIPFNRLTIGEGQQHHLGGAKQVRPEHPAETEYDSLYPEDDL

T5: Recombinant human PSGL-1(ECD)-hFc1 (R&D Systems, Cat. 3345-PS) (human, UniProt Q14242 42-305)
T5 construct: Bought; Gln42-Val295 counted on AAC50061; also called PSGL-1-Fc; PSGL-1-hFc1 chimera; not shown: human IgG1 Fc, Pro100-Lys330
T5 sequence: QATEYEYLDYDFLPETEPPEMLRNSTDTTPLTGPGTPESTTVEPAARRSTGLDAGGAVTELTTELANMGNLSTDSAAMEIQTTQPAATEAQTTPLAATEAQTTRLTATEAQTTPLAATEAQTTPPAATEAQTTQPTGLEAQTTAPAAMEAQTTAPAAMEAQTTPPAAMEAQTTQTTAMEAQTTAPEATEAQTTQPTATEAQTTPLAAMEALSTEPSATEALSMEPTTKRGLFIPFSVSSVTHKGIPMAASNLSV

T6: SulfoCCK biotin peptide (human)
T6 construct: also called sulfotyrosine CCK peptide
T6 peptide: SHRISDRD[sY]MGWMDFGGK(Biotin)


How the values were obtained:
[1] = biological target: T1, Biotin sY51 PSGL-1(42-62) peptide; experiment: ELISA, immobilized biotin peptide
Method in brief: (§1)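 In this ELISA, half-well high binding plates (Corning Cat. #3690) received 3 ug/mL/25 ul per well of biotin-tagged PSGL-1 peptides covering residues 42 to 62, diluted in PBS, pH 7.4, and coated overnight at 4° C. Duplicate readings for each antibody were averaged and the average assay background was subtracted. PSGL-1 protein or peptide was the positive control.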

[2] = biological target: T2, Scrambled Y46,48,51(SO3) PSGL-1(42-62) …; experiment: ELISA, immobilized biotin peptide
Method in brief: as §1

[3] = biological target: T3, Sulfotyrosine D6 biotin peptide; experiment: ELISA, 50 nM mAb
Experimental: (§2) Recombinant PSGL-1-hFc1 chimera protein consisting of PSGL-1's extracellular domain (ECD) served as a positive control. […] Primary antibody was added (25 ul per well) in duplicate at 50 nM in assay buffer (blocking buffer containing 0.05% Tween®20) into test and control (just blocked) wells and the plate incubated for 45 min at 37° C.

[4] = biological target: T4, Human fibrinogen protein (ThermoFisher, …); experiment: ELISA, 50 nM mAb
Experimental: as §2

[5] = biological target: T5, Recombinant human PSGL-1(ECD)-hFc1 (R&D …); experiment: blocking ELISA vs VISTA-Fc, pH 6.0
SulfoCCK biotin peptide = biological target: T6, SulfoCCK biotin peptide; experiment: ELISA, 50 nM mAb
Experimental: as §2

Binder | EC50 [1] [nM] | binding result [2] | binding normalized to PSGL-1 [3] | binding result [4] | % max Block [5] [%] | IC50 [5] [nM] | binding normalized to PSGL-1 (SulfoCCK biotin peptide) | binding normalized to PSGL-1 [4] | EC50 [2] [nM] | binding result [3]
16L15 (antibody, V domains shown, From mouse immunisation; only variable domains given) VH: DVKLVESGGGLVKLGGSLKLSCAASGFTFSSYYMSWVRQTPEKRLEWVATISNGGGSTYYPDSVKDRFTISRDNAKNTLYLQMSSLNSEDTAVYYCAKPLYYSNPWFAYWGQGTLVTVSA VL: DVLLTQTPLSLPVSLGDQASISCRSSQSIVHSNGNTYLEWYLQKPGQSPKLLIYKVSNRFSGVPDRFSGSGSGTDFTLKISRVEAEDLGVYYCFQGSHVPRTFGGGTKLEIK | 0.814 | no binding | 0.06 | no binding (tested: 50 nM) | 100 | 6 |  |  |  | 
10F01 (antibody, IgG4, V domains shown) VH: EVQLVQSGGGLVQPGGSLRLSCAASGFTFSSYAMSWVRQAPGKGLEWVSALRGGDGGTYHADSVKGRFTISGDSSKNTLYLQMNSLRAEDTAVYYCARRMVGAAYAFDIWGQGTMVTVSS VL: LPVLTQPHSVSESPGKTVTISCTRSSGSIADNFVQWYRQRPGSAPTTVIYEGDQRPSGVPGRFSGSIDSSSNSASLTISGLQTDDEADYYCQSFDSYNRRTHVVFGGGTKLTVL |  |  | 0.04 | no binding (tested: 50 nM) | 100 | 8 | 0.03 | 0.01 |  | 
03D07 (antibody, IgG4, V domains shown) VH: EVKLLESGGGLVQPGGSLRLSCAASGFTFSSYALSWVRQAPGKGLEWVSAISGSGGNTYYADSVKGRFTISRDNSKNTLYLQMNSLRAEDTAVYYCAKVVGATNYWGQGTLVTVSS VL: DIVMTQTPLSLPVTLGQPASISCRSSQSLVYSDGHTYLSWFHQRPGQSPRRLIYKVSIRDSGVPDRFSGSGSGTDFTLKISRVEAEDVGVYYCMQRLQIPLTFGGGTKVEIK |  |  | 0.28 |  | 100 | 8 | 0.08 | 0.06 |  | 
2E12 (antibody, V domains shown, Mouse hybridoma mAb; only variable domains given) VH: QVQLQQSGAELARPGASVKLSCKASGYTFTNYGLNWVKQRTGQGLEWIGEIYPRSGNTYYNEKFKGKATLTADKSSSTAYMQLSSLTSEDSAVYFCATEGAYWGQGTLVTVSA VL: DIVMTQTPLTLSVTIGQPASISCKSSQSLLHGNGKTYLNWLLQRPGQSPKLLIYLVSKLESGIPDRFSGSGSGTDFTLEISRVEAEDLGIYYCLQSTHFPRTFGGGTKLEIK | 0.659 |  | 0.06 |  | 0 |  |  | 1.3 | 30 | 
05D01 (antibody, V domains shown) VH: QVTLRESGGALVQPGGSLRLSCAASGFPLRSNAMTWVRQAPGKGLEWVSDIRGNGASTYYADSVKGRFTISRDDSNNILFLQMNSLRAEDTAVYYCVGHGSSSYWGQGTLVTVSS VL: DVVMTQSPLSLPVTLGQPASISCRSSQSLVYRDGNIYLNWFQQRPGQSPRRLIYKVSNRDSGVPDRFSGSGSGTDFTLKISRVEAEDVGVYYCMQLTHWPPGFAQGTKLEIK |  |  | 0.84 |  |  |  | 0.3 | 0.07 | 1.33 | 
5E12 (antibody, V domains shown, Mouse hybridoma mAb; only variable domains given) VH: EIQLQQSGAELVRPGASVKLSCTASGFNIKDDYIHWVKQRPEQGLEWIGRIDPANGNTKSAPKFQDKATITADTSSNTAYLHLSSLTSEDTAVYYCSIRFAYWGQGTLVTVSA VL: DVVMTQTPLSLSVSLGDQASISCRSSQSLVYRNGDTYLHWFLQKPGQSPKLLIYKVSNRFSGVPDRFSGSGSGTDFTLKISRVEAEDLGIYFCSQNTHVPYTFGGGTKLEIK | 0.547 |  | 0.03 |  | 0 |  |  | 0.03 | 32.3 | 
18F02 (antibody, V domains shown, From mouse immunisation; only variable domains given) VH: QVQLQQPGAELVKPGASVKLSCKASGYTFTSYWMHWVKQRPGQGLEWIGMIHPNSGRTNYNEKFKSKATLTVDKSSSTAYMQLSSLTSEDSAVYYCARSDYWGQGTTLTVSS VL: DIVMTQAAFSNPVTLGTSASISCRSSKSLLHSDGITYLYWFLQRPGQSPQLLIYRMSNLASGVPDRFSGSGSGTDFTLRISRVEAEDVGVYYCAQMLEFPRTFGGGTKLEIK | 0.705 | no binding | 0.09 | no binding (tested: 50 nM) | 100 | 10 |  | 0.01 |  | 
19I01 (antibody, V domains shown, From mouse immunisation; only variable domains given; also called 19101) VH: EVQLVESGGGLVKPGGSRKLSCAASGFTFSDYGMHWVRQAPEKGLEWVAYISSGSSTIYYADTVKGRFTISRDNAKNTLFLQMTSLRSEDTAMYYCARGVDGYWGQGTTLTVSS VL: DVVMTQTPLSLPVSLGDQASISCRSSQSLVHSNGNTYLHWYLQKPGQSPKFLIYKVSNRFSGVPDRFSGSGSGTDFTLKISRVEAEDLGVYFCSQTTHVPLTFGAGTKLELK | 1.22 |  | 0.02 | no binding (tested: 50 nM) | 100 | 8 |  | -0.01 | 198 | no binding (tested: 50 nM)
20I15 (antibody, V domains shown, From mouse immunisation; only variable domains given; also called 20115) VH: EVKLVESGGGLVQPGGSLSLSCAASGFTFTDYYMSWVRQPPGKALEWLGFIRNKANGYTTEYSASVKGRFTISRDNSQSILYLQMNALRAEDSATYYCARTYLRRGYFDVWGTGTTVTVSS VL: DIVLTQSPASLAVSLGQRATISCRASKSVSTSGYSYMHWFQQKPGQPPKLLIYLASNLESGVPARFSGSGSGTDFTLNIHPVEEEDAATYYCQHSRELPLTFGAGTKLELK | 178 | no binding | 0.35 |  | 85 | 30 |  | 0.06 |  | 
